Measurements taken from paper PMC12216424.

How the values were obtained:
[1] = biological target: LbCas12a (cryo-EM, assembled with crRNA) (UniProt A0A5S8WF58 1-1228); assay: cryo-EM structure
LbCas12a = LbCas12a (UniProt A0A5S8WF58 1-1228); assay: thermal shift

Binder | binding result [1] | binding result (LbCas12a)
UAAUUUCUACUAAGUGUAGAUGGGGUUUGAGGUCCAUUACA (structured_RNA) [12a-crRNA] | binds | –
GCGACTCGGTTCTTGCCTAAG (XNA, all 20 linkages phosphorothioate) [PS DNA1] | – | binds
